In publication PMC2930068 (Journal of molecular biology, 2010):
“And” between values parts separate entries of the source, which are not always exact repeats. Identical values can stand only once.

T1: pSTAT1 (1-712) F77A / L78A (UniProt P42224-2 1-712, F77A | L78A, phosphotyrosine at 701)
T1 sequence (looked up): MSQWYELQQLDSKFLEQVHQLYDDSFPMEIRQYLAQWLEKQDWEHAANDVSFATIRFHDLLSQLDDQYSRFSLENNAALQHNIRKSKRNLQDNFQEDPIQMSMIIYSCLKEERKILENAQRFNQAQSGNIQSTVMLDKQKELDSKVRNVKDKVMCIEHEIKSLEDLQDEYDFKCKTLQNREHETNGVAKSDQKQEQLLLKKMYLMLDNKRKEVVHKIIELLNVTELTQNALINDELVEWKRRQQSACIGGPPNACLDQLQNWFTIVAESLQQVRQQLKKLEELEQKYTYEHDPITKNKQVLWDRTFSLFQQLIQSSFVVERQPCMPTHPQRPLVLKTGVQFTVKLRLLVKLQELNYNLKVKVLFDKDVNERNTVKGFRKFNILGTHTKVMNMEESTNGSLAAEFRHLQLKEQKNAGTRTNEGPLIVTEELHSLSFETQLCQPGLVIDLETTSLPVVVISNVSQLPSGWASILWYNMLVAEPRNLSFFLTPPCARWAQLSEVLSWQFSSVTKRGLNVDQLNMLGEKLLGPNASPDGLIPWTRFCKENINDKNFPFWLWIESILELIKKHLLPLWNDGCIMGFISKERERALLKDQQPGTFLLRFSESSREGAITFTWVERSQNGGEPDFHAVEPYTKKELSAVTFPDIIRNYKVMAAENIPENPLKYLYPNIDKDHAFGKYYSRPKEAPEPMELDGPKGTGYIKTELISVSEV

B1: phosphorylated-Tyr701 STAT1 (1-712), N-terminal 6-histidine tag (natural protein, UniProt P42224-2 1-712, looked up)
chain: MSQWYELQQLDSKFLEQVHQLYDDSFPMEIRQYLAQWLEKQDWEHAANDVSFATIRFHDLLSQLDDQYSRFSLENNFLLQHNIRKSKRNLQDNFQEDPIQMSMIIYSCLKEERKILENAQRFNQAQSGNIQSTVMLDKQKELDSKVRNVKDKVMCIEHEIKSLEDLQDEYDFKCKTLQNREHETNGVAKSDQKQEQLLLKKMYLMLDNKRKEVVHKIIELLNVTELTQNALINDELVEWKRRQQSACIGGPPNACLDQLQNWFTIVAESLQQVRQQLKKLEELEQKYTYEHDPITKNKQVLWDRTFSLFQQLIQSSFVVERQPCMPTHPQRPLVLKTGVQFTVKLRLLVKLQELNYNLKVKVLFDKDVNERNTVKGFRKFNILGTHTKVMNMEESTNGSLAAEFRHLQLKEQKNAGTRTNEGPLIVTEELHSLSFETQLCQPGLVIDLETTSLPVVVISNVSQLPSGWASILWYNMLVAEPRNLSFFLTPPCARWAQLSEVLSWQFSSVTKRGLNVDQLNMLGEKLLGPNASPDGLIPWTRFCKENINDKNFPFWLWIESILELIKKHLLPLWNDGCIMGFISKERERALLKDQQPGTFLLRFSESSREGAITFTWVERSQNGGEPDFHAVEPYTKKELSAVTFPDIIRNYKVMAAENIPENPLKYLYPNIDKDHAFGKYYSRPKEAPEPMELDGPKGTGYIKTELISVSEV
modifications: phosphotyrosine at 701; alkylated with N-ethyl-maleimide

How the values were obtained:
[1] = target: the molecule itself; assay: AUC
[2] = target: T1, pSTAT1 (1-712) F77A / L78A; assay: SPR
[3] = target: B1; assay: SPR

| Kd [3] [nM] | koff [3] [s⁻¹] | kon [3] [M⁻¹ s⁻¹] | Binder | stoichiometry N [1] | further results |
| --- | --- | --- | --- | --- | --- |
|  |  |  | unphosphorylated STAT1 (1-712), N-terminal 6-histidine tag (natural protein, UniProt P42224-2 1-712, looked up) MSQWYELQQLDSKFLEQVHQLYDDSFPMEIRQYLAQWLEKQDWEHAANDVSFATIRFHDLLSQLDDQYSRFSLENNFLLQHNIRKSKRNLQDNFQEDPIQMSMIIYSCLKEERKILENAQRFNQAQSGNIQSTVMLDKQKELDSKVRNVKDKVMCIEHEIKSLEDLQDEYDFKCKTLQNREHETNGVAKSDQKQEQLLLKKMYLMLDNKRKEVVHKIIELLNVTELTQNALINDELVEWKRRQQSACIGGPPNACLDQLQNWFTIVAESLQQVRQQLKKLEELEQKYTYEHDPITKNKQVLWDRTFSLFQQLIQSSFVVERQPCMPTHPQRPLVLKTGVQFTVKLRLLVKLQELNYNLKVKVLFDKDVNERNTVKGFRKFNILGTHTKVMNMEESTNGSLAAEFRHLQLKEQKNAGTRTNEGPLIVTEELHSLSFETQLCQPGLVIDLETTSLPVVVISNVSQLPSGWASILWYNMLVAEPRNLSFFLTPPCARWAQLSEVLSWQFSSVTKRGLNVDQLNMLGEKLLGPNASPDGLIPWTRFCKENINDKNFPFWLWIESILELIKKHLLPLWNDGCIMGFISKERERALLKDQQPGTFLLRFSESSREGAITFTWVERSQNGGEPDFHAVEPYTKKELSAVTFPDIIRNYKVMAAENIPENPLKYLYPNIDKDHAFGKYYSRPKEAPEPMELDGPKGTGYIKTELISVSEV | 2 |  |
|  |  |  | B1 | 2 and ~4 |  |
|  |  |  | GST-importin α5 (res. 1-538) (natural protein) not shown |  | Kd [2]: 112 ± 22 nM; koff [2]: 0.0113 s⁻¹; kon [2]: 98100 M⁻¹ s⁻¹ |
| 166 ± 17 | 0.0204 | 124000 | GST-importin α5 (res. 1-512) (domain or fragment) not shown |  |  |
| 247 ± 27 | 0.0243 | 98300 | GST-importin α5 (res. 1-504) (domain or fragment) not shown |  |  |
| 153 ± 16 | 0.0218 | 144000 | GST-ΔIBB-importin α5 (res. 79-538) (domain or fragment) not shown |  |  |
